Residue numbers refer to the chain shown, from its start.
T1: GST-σ^G (Bacillus subtilis, UniProt P19940 1-260)
T1 construct: RNA polymerase sigma-G factor of Bacillus subtilis; coding region of sigG amplified with primers sigG2016D and sigG2964R from pMS45 and cloned into pGex4T-3; also called GST-σ^Gwt; GST-σ^G fusion protein (wt); not shown: GST, N-terminal, kept
T1 sequence (looked up): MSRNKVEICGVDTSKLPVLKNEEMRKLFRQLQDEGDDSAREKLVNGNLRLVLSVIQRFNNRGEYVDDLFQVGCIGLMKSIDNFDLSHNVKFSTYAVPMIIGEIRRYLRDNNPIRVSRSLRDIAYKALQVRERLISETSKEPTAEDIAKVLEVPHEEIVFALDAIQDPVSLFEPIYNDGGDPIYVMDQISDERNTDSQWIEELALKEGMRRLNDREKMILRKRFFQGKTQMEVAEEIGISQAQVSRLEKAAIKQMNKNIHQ

T2: GST-σ^GN45A (Bacillus subtilis, UniProt P19940 1-260, N45A)
T2 construct: RNA polymerase sigma-G factor of Bacillus subtilis; coding region of sigGN45A amplified from pJS4 and cloned into pGex4T-3; not shown: GST, N-terminal, kept
T2 sequence (looked up): T1 sequence (looked up) with N45A

B1: CsfB-Strep II tag (natural protein, Bacillus subtilis, UniProt P37534 1-64, looked up)
chain: MDETVKLNHTCVICDQEKNRGIHLYTKFICLDCERKVISTSTSDPDYAFYVKKLKSIHTPPLYS
notes: anti-sigma-G factor CsfB (Gin) of Bacillus subtilis; coding region of csfB amplified with primers csfB191D and csfBstrepR (which carries the Strep II tag) and cloned between NcoI and BamHI of pET16b; also called CsfB-Strep II-tagged protein; purified CsfB; source: E. coli BL21(DE3) grown in LB, purified (Strep-Tactin Sepharose); not shown: Strep II tag, C-terminal, kept
B2: CsfB-GFP fusion (natural protein, Bacillus subtilis, UniProt P37534 1-64, looked up)
chain: B1 chain
notes: anti-sigma-G factor CsfB (Gin) of Bacillus subtilis, functional fusion to GFP; The construction of the csfB-gfp fusion stands in Text S1; source: B. subtilis AH6608 (csfB::km ΔsigG ΔamyE::csfB-gfp), soluble extract 2 h after the onset of sporulation in DSM

Assays:
[1] = target: GST-σ^GN45E (Bacillus subtilis) (UniProt P19940); assay: pull-down; GST or GST-σ^G fusions on glutathione Sepharose beads; 100 nM purified CsfB-Strep II tag; 30 min at room temperature; washed three times in 200 mM NaCl, 10 mM Tris-HCl pH 8.0, 10% glycerol; immunoblot with anti-Strep II tag; densitometry, average of three experiments
GST-σ^G = target: T1, GST-σ^G; assay: as above; settings: both partners purified
GST-σ^GN45A [2] = target: T2, GST-σ^GN45A; assay: as above; settings: both partners purified
GST-σ^GN45A [3] = target: T2, GST-σ^GN45A; assay: pull-down; GST or GST-σ^G fusions on glutathione Sepharose beads; soluble extract of B. subtilis AH6608 (CsfB-GFP) 2 h after the onset of sporulation; 30 min at room temperature; washed three times in 200 mM NaCl, 10 mM Tris-HCl pH 8.0, 10% glycerol; immunoblot with anti-GFP and anti-SpoIIAB; densitometry, average of three experiments; settings: one partner purified
[4] = target: GST-σ^GN45E (Bacillus subtilis) (UniProt P19940); assay: as above

Row | Binder | efficiency of the pull-down relative to the wild type (× of the wild type) [1] | binding result (GST-σ^G) | efficiency of the pull-down relative to the wild type (GST-σ^GN45A [2]) | efficiency of the pull-down relative to the wild type (GST-σ^GN45A [3]) | efficiency of the pull-down relative to the wild type (× of the wild type) [4]
1 | B1 | 0.2 | binds | ~0.6 × the efficiency of the wild type |  | 
2 | B2 |  |  |  | 0.7 × of the wild type | 0.4
